Common to all, as to assay: SPR
For orientation: Surface plasmon resonance follows binding to a sensor surface in real time, without labels.

Experiment [1] addresses recombinant human CTLA-4-Fc (R&D Systems, #7268-CT) (UniProt P16410 36-161).
For experiment [2], the target named is recombinant cynomolgus CTLA-4-Fc (Sino Biological, #90213-C02H).
In a further experiment the target is Human CTLA-4 monomer.
In experiment [3] the target is Cynomolgus CTLA-4 monomer.

For orientation: Kd means the equilibrium constant for the complex coming apart.

recombinant human CTLA-4-Fc (R&D Systems, #7268-CT), sequence (P16410 36-161): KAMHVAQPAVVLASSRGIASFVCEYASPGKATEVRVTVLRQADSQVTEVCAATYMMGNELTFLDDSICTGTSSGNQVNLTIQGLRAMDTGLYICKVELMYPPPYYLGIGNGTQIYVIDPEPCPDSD
recombinant cynomolgus CTLA-4-Fc (Sino Biological, #90213-C02H), sequence (chain, as listed by the source C02H): as the sequence (P16410 36-161) above, with S14N, L106M counted along it

B1: AGEN2041w (antibody)
heavy: EVQLVESGGGLVKPGGSLRLSCAASGFTFSSYSMNWVRQAPGKGLEWVSSISSSSSYIYYADSVKGRFTISRDNAKNSLYLQMNSLRAEDTAVYYCARVGLMGPFDIWGQGTMVTVSSASTKGPSVFPLAPCSRSTSESTAALGCLVKDYFPEPVTVSWNSGALTSGVHTFPAVLQSSGLYSLSSVVTVPSSNFGTQTYTCNVDHKPSNTKVDKTVERKCCVECPPCPAPPVAGPSVFLFPPKPKDTLMISRTPEVTCVVVDVSHEDPEVQFNWYVDGVEVHNAKTKPREEQFNSTFRVVSVLTVVHQDWLNGKEYKCKVSNKGLPAPIEKTISKTKGQPREPQVYTLPPSREEMTKNQVSLTCLVKGFYPSDIAVEWESNGQPENNYKTTPPMLDSDGSFFLYSKLTVDKSRWQQGNVFSCSVMHEALHNHYTQKSLSLSPG
light: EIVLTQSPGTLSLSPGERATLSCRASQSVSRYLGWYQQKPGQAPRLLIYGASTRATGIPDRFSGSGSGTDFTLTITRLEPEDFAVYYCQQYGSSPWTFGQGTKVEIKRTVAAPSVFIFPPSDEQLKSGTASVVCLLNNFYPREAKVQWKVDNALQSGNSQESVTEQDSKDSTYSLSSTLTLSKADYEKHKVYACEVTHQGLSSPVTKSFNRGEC
As for B1, the Kd in experiment [1] was determined as 1.7 nM; in experiment [2], 4.4 nM; with Human CTLA-4 monomer, 2 nM; in experiment [3] it was 2.1 nM.

The record behind these values is patent US20220267443A1 (published 2022).
